Target: Cy5 N-terminal-labeled WWP2 (human) (UniProt O00308)
Test: MST; 10 nM N-terminal Cy5-labeled WWP2, NDP52 (up to 48 uM) or OPTN (up to 60 uM) in two-fold serial dilution; 25 mM Hepes pH 7.8, 250 mM NaCl, 1 mM TCEP, 0.5 mg/ml BSA, 0.05% Tween-20; room temperature; apparent KD, quadratic model

- Kd: 19 µM
B1: NDP52 (natural protein)
chain: MEETIKDPPTSAVLLDHCHFSQVIFNSVEKFYIPGGDVTCHYTFTQHFIPRRKDWIGIFRVGWKTTREYYTFMWVTLPIDLNNKSAKQQEVQFKAYYLPKDDEYYQFCYVDEDGVVRGASIPFQFRPENEEDILVVTTQGEVEEIEQHNKELCKENQELKDSCISLQKQNSDMQAELQKKQEELETLQSINKKLELKVKEQKDYWETELLQLKEQNQKMSSENEKMGIRVDQLQAQLSTQEKEMEKLVQGDQDKTEQLEQLKKENDHLFLSLTEQRKDQKKLEQTVEQMKQNETTAMKKQQELMDENFDLSKRLSENEIICNALQRQKERLEGENDLLKRENSRLLSYMGLDFNSLPYQVPTSDEGGARQNPGLAYGNPYSGIQESSSPSPLSIKKCPICKADDICDHTLEQQQMQPLCFNCPICDKIFPATEKQIFEDHVFCHSL

From article PMC9034101
